Experimental data published in patent US20240101959A1, “USE OF IL-2R-BETA-GAMMA AGONIST PEPTIDES IN CELL MANUFACTURING” (MEDIKINE, INC., priority 2022, published 2024).
Positions of bridges follow the written chain, without caps; N, C: chain ends. No end group written: not given here.

B1: SEQ ID NO 245 (peptide)
peptide: AHWSQPCWTAQLGELCDLDMGD
B2: SEQ ID NO 250 (peptide)
peptide: MGTGWQNYCRYAQLGELCLL
B3: SEQ ID NO 365 (peptide)
peptide: RSLRESWFPCWMAKLGDLCDLE
B4: SEQ ID NO 362 (peptide)
peptide: WLPCWMAHLGDLCDLE
B5: SEQ ID NO 353 (peptide)
peptide: SHLWFPCWMAQLGELCDLEGGP
B6: SEQ ID NO 95 (peptide)
peptide: WLPCWIASLGELCDLDTGKRQG
B7: SEQ ID NO 241 (peptide)
peptide: QPAWLPCWLAQLGELCDLGTGA
B8: SEQ ID NO 253 (peptide)
peptide: WDGWECGMDHDGWVCEFWGE
B9: SEQ ID NO 364 (peptide)
peptide: ESKEPAFWPCWMAQLGDLCDLE
B10: SEQ ID NO 251 (peptide)
peptide: WYPCGVAQPGDLCDLE
B11: SEQ ID NO 97 (peptide)
peptide: EGVFFPCWIARLGELCDLDHGL
B12: SEQ ID NO 367 (peptide)
peptide: SRSAGEYYPCWLAQLGELCDLA
B13: SEQ ID NO 348 (peptide)
peptide: VWFPCWFAQLGDLCDLDQDP
B14: SEQ ID NO 249 (peptide)
peptide: DLWQPCWMARLGELCDLKG
B15: SEQ ID NO 347 (peptide)
peptide: WYPCWLAKLGELCDLDRAEALP
B16: SEQ ID NO 359 (peptide)
peptide: WYPCSIALLGELCDLESVHEKS
modifications: disulfide 4-13 (inferred)
B17: SEQ ID NO 358 (peptide)
peptide: HGGVIGWYPCWMAKVGELCDLD
modifications: disulfide 10-19 (inferred)
B18: SEQ ID NO 366 (peptide)
peptide: WHPCWLARVGDLCDLD
B19: SEQ ID NO 340 (peptide)
peptide: AVEFYPCWLARIGELCDLVEP
B20: SEQ ID NO 342 (peptide)
peptide: WYPCWIARVGELCDME
modifications: disulfide 4-13 (inferred)
B21: SEQ ID NO 553 (peptide)
peptide: WYPCWIARVGELCDLE
B22: SEQ ID NO 343 (peptide)
peptide: RREWYPCWIAQVGELCDLPLI
B23: SEQ ID NO 338 (peptide)
peptide: TNNFYPCWLAKLGDLCDFDDLN
modifications: disulfide 7-16 (inferred)
B24: SEQ ID NO 337 (peptide)
peptide: WYPCWIAQLGELCDLDAKGQRR
B25: SEQ ID NO 363 (peptide)
peptide: RPSWAPCWLAQVGELCDLDHPE
modifications: disulfide 7-16 (inferred)
B26: SEQ ID NO 350 (peptide)
peptide: WYSCWIAQLGELCDLDDMGDRV
modifications: disulfide 4-13 (inferred)
B27: SEQ ID NO 349 (peptide)
peptide: ETLGSVWYPCWIASIGELCDLD
B28: SEQ ID NO 80 (peptide)
peptide: WLPCWIARLGDLCDLE
B29: SEQ ID NO 87 (peptide)
peptide: WYPCWLAQLGDLCDLD
B30: SEQ ID NO 130 (peptide)
peptide: WYPCWLAQLGELCDLD
B31: SEQ ID NO 142 (peptide)
peptide: WYPCWIAKLGELCDLE
B32: SEQ ID NO 147 (peptide)
peptide: WHPCWIAQLGELCDLE
B33: SEQ ID NO 554 (peptide)
peptide: WYPCWLAQVGELCDLD
B34: SEQ ID NO 352 (peptide)
peptide: WYPCWIAQLGELCDLV
B35: SEQ ID NO 472 (peptide)
peptide: WYPCWVAKLGELCDLE
B36: SEQ ID NO 361 (peptide)
peptide: WYPCWLAQLGELCDLD
B37: SEQ ID NO 341 (peptide)
peptide: WYPCWIAHLGELCDLE
B38: SEQ ID NO 148 (peptide)
peptide: WYPCWIAQLGELCDLE
B39: SEQ ID NO 376 (peptide)
peptide: WYPCWMAQLGELCDMD
modifications: disulfide 4-13 (inferred)
B40: SEQ ID NO 474 (peptide)
peptide: WYPCWMAHLGELCDLE
B41: SEQ ID NO 387 (peptide)
peptide: RYPCWIAQLGELCDLD
B42: SEQ ID NO 369 (peptide)
peptide: WYPCWLAHLGELCDLE
B43: SEQ ID NO 137 (peptide)
peptide: WYPCWMARLGELCDLE
B44: SEQ ID NO 388 (peptide)
peptide: WHPCWIAHLGELCDLE
B45: SEQ ID NO 462 (peptide)
peptide: WYPCWVAQLGELCDLE
B46: SEQ ID NO 395 (peptide)
peptide: WYPCWLAHLGELCDLA
B47: SEQ ID NO 384 (peptide)
peptide: WYPCWMARMGELCDLE
B48: SEQ ID NO 252 (peptide)
peptide: MLGEWLCEMDQLGYLCYLDHGD
B49: SEQ ID NO 356 (peptide)
peptide: WYSCWIAQIGELCDLE
B50: SEQ ID NO 354 (peptide)
peptide: RRWLPCWMAHVGELCDLELGN
B51: SEQ ID NO 96 (peptide)
peptide: WLPCWMAHLGQLCDLDLPGKSM
B52: SEQ ID NO 244 (peptide)
peptide: STGWYPCWIAEFGELCDLVKPH
B53: SEQ ID NO 339 (peptide)
peptide: WYPCWIARVGELCDLEEGPVNR
B54: SEQ ID NO 243 (peptide)
peptide: YLNFNPCWTAQLGELCDLASGE
B55: SEQ ID NO 355 (peptide)
peptide: YWCWFARVGELCDLDDGGVPS
B56: SEQ ID NO 346 (peptide)
peptide: HGRWFPCWMAQVGDLCDLEHSN
B57: SEQ ID NO 344 (peptide)
peptide: RWPWYPCEIARIGELCDLEQAN
B58: SEQ ID NO 247 (peptide)
peptide: QTGSYPCWIAHLGELCDLEGSA
B59: SEQ ID NO 351 (peptide)
peptide: WFPCWLAQLGELCDKE
B60: SEQ ID NO 345 (peptide)
peptide: FGAFYPCWKAQLGELCDLEPVT
B61: SEQ ID NO 357 (peptide)
peptide: MNPVGTFYPCWIAKLGELCDLQ
B62: SEQ ID NO 248 (peptide)
peptide: TGWWYPCWMAQLGELCDLQQT
modifications: disulfide 7-16 (inferred)
B63: SEQ ID NO 94 (peptide)
peptide: AGDWLPCWMAELGELCDLEGPT
B64: SEQ ID NO 360 (peptide)
peptide: EQRNRQWWPCWLARLGDLCDLD
B65: SEQ ID NO 242 (peptide)
peptide: SRFWQPCWMAQLGELCHLDPQM
B66: SEQ ID NO 246 (peptide)
peptide: HPVRYPCWVAQLGELCDLENGN
B67: SEQ ID NO 98 (peptide)
peptide: TGRWKPCWMAGLHELCDLEGFR

Molecular target: T1, hu-IL-2Rβ subunit (human, UniProt P14784 27-240, limits assumed)
T1 construct: also called human interleukin-2 receptor subunit β; CD122
T1 sequence (looked up): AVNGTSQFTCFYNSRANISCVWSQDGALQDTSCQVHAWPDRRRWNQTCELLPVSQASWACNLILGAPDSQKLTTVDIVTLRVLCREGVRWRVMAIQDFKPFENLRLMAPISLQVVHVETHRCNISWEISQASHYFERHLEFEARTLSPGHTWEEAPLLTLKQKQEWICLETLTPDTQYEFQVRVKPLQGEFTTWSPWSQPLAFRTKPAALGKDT
Assay: phage ELISA competition assay

IC50, < 100 µM:
B1
B2
B3
B4
B5
B6
B7
B8
B9
B10
B11
B12
B13
B14
B15
B16
B17
B18
B19
B20
B21
B22
B23
B24
B25
B26
B27
B28
B29
B30
B31
B32
B33
B34
B35
B36
B37
B38
B39
B40
B41
B42
B43
B44
B45
B46
B47
B48
B49
B50
B51
B52
B53
B54
B55
B56
B57
B58
B59
B60
B61
B62
B63
B64
B65
B66
B67
